Measurements: publication PMC5293257

Experiments:
[1] = molecular target: fibronectin (human (endogenous in dHL-60)) (UniProt P02751)
[2] = molecular target: fibronectin (human (endogenous in dHL-60)) (UniProt P02751); remark: listed apart in the source

adhesion of K562 cells to NETs coated plates (NETs from dHL-60 stimulated in serum free conditions), percentage of adherent cells [1]: 62% | adhesion of K562 cells to NETs coated plates (serum free NETs) with anti-integrin blocking Ab, percentage of adherent cells [1]: 10% | adhesion of K562 cells to NETs coated plates (NETs from dHL-60 stimulated with 10% FBS), percentage of adherent cells [2]: 59% | adhesion of K562 cells to NETs coated plates with anti-α5β1 blocking antibody (P1D6), percentage of adherent cells [2]: 24%
Substance: integrin α5β1 (from UniProt P08648 42-1049; P05556 21-798) (receptor)
